# Experimental data taken from patent publication US20240360245A1 (Daiichi Sankyo, published 2024).
# Where a chain is given by its changes, count along the chain named.
# B1: humanized anti-human GARP antibody h151D-H1L1 (antibody, human IgG1, kappa, V domains shown)
# VH: EVQLVESGGGLVQPGGSLRLSCAASGFTFSNYYMAWVRQAPGKGLEWVSSIGTVGGNTYYADSVKGRFTISRDDSKNTLYLQMNSLRAEDTAVYYCAREDYGGFPHWGQGTLVTVSS
# VL: NIVMTQSPDSLAVSLGERATINCKASQNVGTNVDWYQQKPGQSPKLLIYGASNRYTGVPDRFSGSGSGTDFTLTISSLQAEDVAVYDCLQYKYNPYTFGQGTKVEIKR
# notes: Produced in Potelligent CHOK1SV cells; also called MACA-1511a
# B2: humanized anti-human GARP antibody h151D-H4L4 (antibody, human IgG1, kappa, V domains shown)
# VH: B1 VH with S49A, A61R, N77S
# VL: B1 VL with D9S, A12S, V13A, L15V, E17D, A19V, Q42K, A80P, V83F, V85T
# notes: Produced in Potelligent CHOK1SV cells; also called MACA-1514a
# B3: human chimeric 151D antibody c151D (antibody, human IgG1, V domains shown)
# VH: EVQLVESGGGLVQPGRSKKLSCSASGFTFSNYYMAWVRQAPTQGLEWVASIGTVGGNTYYRDSVKGRFTISRDDAKSTLYLQMDSLRSEDTATYYCAREDYGGFPHWGQGVMVTVSS
# VL: NIVMTQSPTSMFISVGDRVTMNCKASQNVGTNVDWYQQKTGQSPKLLIYGASNRYTGVPDRFTGSGSGTDFTLTISNMQAEDLAVYDCLQYKYNPYTFGTGTKLELNR
# B4: human chimeric 198D antibody c198D (antibody, human IgG1, V domains shown)
# VH: QVQLRESGPGLVQPSQTLSLTCTVSGFSLTSFHVSWVRQPPEKGLEWIATISSGGGTYYNSALKSRLSISRDTSKSQVFLKMSTLQTEDTAMYFCARISGWGHYYVMDVWGQGASVTVSS
# VL: DIQMTQSPASLSGSLGETVTIQCQASEDIYSGLAWYQQKPGKSPQLLIYGAGSLQDGVPSRFSGGGSGTHYSLKISSMQTEDEGVYFCQQGLKFPLTFGSGTKLEIKR
# B5: 110F antibody (antibody, human IgG1, lambda, V domains shown)
# VH: EVQLLESGGGLVQPGGSLRLSCAASGFTFSSYGMHWVRQAPGKGLEWVAGISWNSAITVYADSVKGRFTISRDNSKNTLYLQMNSLRAEDTAVYYCAKDAGGRYSGSYYFDYWGQGTLVTVSS
# VL: QSVLTQPPSASGTPGQRVTISCTGSSSNIGAGYDVHWYQQLPGTAPKLLIYGNSNRPSGVPDRFSGSKSGTSASLAISGLRSEDEADYYCQSYDRSLNWVFGGGTKLTVLG
# B6: 110F Fab (ELISA-positive clone from the n-CoDeR Fab phage library) (Fab, V domains shown)
# VH: B5 VH
# VL: B5 VL
# notes: Fab produced in Escherichia coli and tested as culture supernatant
# B7: humanized anti-human GARP antibody h198D-H3L4 (antibody, human IgG1, kappa, V domains shown)
# VH: EVQLVESGGGLVKPSQTLSLTCTVSGFSLTSFHVSWVRQPPGKGLEWIATISSGGGTYYNPSLKSRVTISRDTSKNQVSLKLSSVTAADTAVYYCARISGWGHYYVMDVWGQGTLVTVSS
# VL: DIQMTQSPSSLSASVGDRVTITCQASEDIYSGLAWYQQKPGKSPKLLIYGAGSLQDGVPSRFSGSGSGTHYTLTISSLQPEDFATYFCQQGLKFPLTFGQGTKVEIKR
# notes: Produced in Potelligent CHOK1SV cells; also called MACA-1983a
# Columns and labels:
# [1] = target: human GARP expressed on cells (GARP-transfected HEK-293T cells; endogenous on L428 cells and activated Treg) (human) (UniProt Q14392); assay: flow cytometry on anti-CD3/anti-CD28 activated human PBMC, Alexa Fluor 647-labeled antibody against PE anti-Foxp3; the panel Antibody not-added prints 0.13
# [2] = target: human GARP expressed on cells (GARP-transfected HEK-293T cells; endogenous on L428 cells and activated Treg) (human) (UniProt Q14392); assay: flow cytometry on anti-CD3/anti-CD28 activated human PBMC, Alexa Fluor 647-labeled antibody against PE anti-Foxp3; the panel Antibody not-added prints 0.18
# [3] = target: human GARP expressed on cells (GARP-transfected HEK-293T cells; endogenous on L428 cells and activated Treg) (human) (UniProt Q14392); assay: flow cytometry on CD3/CD28 bead-activated human PBMC gated on CD4-positive cells, FITC-labeled anti-IgG secondary antibody against PE anti-Foxp3
# [4] = target: T1, human GARP expressed on cells (GARP-transfected HEK-293T cells; endogenous on L428 cells and activated Treg) (human, UniProt Q14392 20-662); assay: as above
# T1 construct: The transfected cells carry a human GARP cDNA clone (Origene) in pcDNA3.1(+); also called hGARP; endogenously expressed GARP
# T1 sequence: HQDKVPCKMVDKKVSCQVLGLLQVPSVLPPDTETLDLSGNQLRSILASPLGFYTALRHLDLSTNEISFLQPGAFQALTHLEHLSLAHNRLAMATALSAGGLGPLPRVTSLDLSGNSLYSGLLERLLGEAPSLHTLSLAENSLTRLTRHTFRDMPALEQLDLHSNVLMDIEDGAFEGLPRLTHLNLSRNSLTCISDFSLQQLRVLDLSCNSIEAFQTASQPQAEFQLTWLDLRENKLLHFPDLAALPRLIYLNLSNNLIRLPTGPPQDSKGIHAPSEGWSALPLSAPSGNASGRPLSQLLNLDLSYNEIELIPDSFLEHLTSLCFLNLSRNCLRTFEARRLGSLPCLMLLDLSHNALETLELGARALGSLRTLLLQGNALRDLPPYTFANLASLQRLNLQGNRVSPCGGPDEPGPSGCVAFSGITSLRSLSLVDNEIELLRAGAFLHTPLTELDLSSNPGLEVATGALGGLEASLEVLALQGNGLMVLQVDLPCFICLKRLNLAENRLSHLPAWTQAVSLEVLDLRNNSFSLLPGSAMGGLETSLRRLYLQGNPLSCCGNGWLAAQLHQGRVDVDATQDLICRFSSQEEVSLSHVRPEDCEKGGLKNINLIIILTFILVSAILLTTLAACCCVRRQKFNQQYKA
# [5] = target: T2, recombinant human GARP (R&D Systems, catalog number 6055-LR) (human, UniProt Q14392 20-627); assay: SPR (Biacore T200), antibody captured on Protein A, GARP antigen as analyte, 1:1 fit
# T2 construct: Bought soluble protein; In the phage panning and Fab screening it was in part biotinylated; also called antigen
# T2 sequence: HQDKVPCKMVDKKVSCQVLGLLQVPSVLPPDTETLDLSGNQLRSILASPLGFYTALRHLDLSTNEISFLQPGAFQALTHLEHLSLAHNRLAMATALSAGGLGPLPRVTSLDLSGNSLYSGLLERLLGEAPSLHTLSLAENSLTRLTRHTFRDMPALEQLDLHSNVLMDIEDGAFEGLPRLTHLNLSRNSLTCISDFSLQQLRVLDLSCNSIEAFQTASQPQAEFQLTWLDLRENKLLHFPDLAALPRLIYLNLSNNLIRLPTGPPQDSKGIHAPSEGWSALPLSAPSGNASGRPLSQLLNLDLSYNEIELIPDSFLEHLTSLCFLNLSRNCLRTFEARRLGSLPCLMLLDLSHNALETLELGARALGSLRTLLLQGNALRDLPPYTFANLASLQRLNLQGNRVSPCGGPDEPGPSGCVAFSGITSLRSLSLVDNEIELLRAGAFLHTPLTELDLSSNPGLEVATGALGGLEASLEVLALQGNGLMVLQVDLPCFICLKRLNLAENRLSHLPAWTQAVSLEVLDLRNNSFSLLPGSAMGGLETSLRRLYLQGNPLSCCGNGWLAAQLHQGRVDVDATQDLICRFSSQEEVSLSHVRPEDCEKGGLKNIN
# Description: The dissociation constant between each of the humanized anti-human GARP antibodies h151D-H1L1, h151D-H4L4 and h198D-H3L4 produced in Example 7)-10 and GARP was evaluated by using Biacore T200 (GE Healthcare Bioscience), according to a capture method, which comprises capturing the antibody as a ligand by the immobilized Protein A and then analyzing the dissociation constant using an antigen as an analyte. HBS-EP+ (manufactured by GE Healthcare Bioscience) was used as a running buffer, and a Protein A Sensor Chip (manufactured by GE Healthcare Bioscience) was used as a sensor chip.
# (§1) The human chimeric antibody (1 μg/mL) was added onto the chip at a rate of 10 μL/min for 20 seconds, and a dilution series solution (8 to 128 nM) of the antigen was added at a flow rate of 30 μl/min for 120 seconds. Subsequently, the dissociation was monitored for 480 seconds. As a regeneration solution, Glycine 1.5 (manufactured by GE Healthcare Bioscience) was added at a flow rate of 20 μl/min for 30 seconds.
# 1:1 Fitting model was used in data analysis, and the association rate constant ka, the dissociation rate constant kd, and the dissociation constant (KD; KD=kd/ka) were calculated.
# [6] = target: T2, recombinant human GARP (R&D Systems, …); assay: SPR (Biacore T200), antibody captured on Protein A, recombinant human GARP as analyte, 1:1 fit
# Description: The dissociation constant between the c151D or c198D produced in Example 6)-4 and human GARP was evaluated by using Biacore T200 (GE Healthcare Bioscience), according to a capture method, which comprises capturing the antibody as a ligand with the immobilized Protein A and then analyzing the dissociation constant using an antigen (recombinant human GARP: R&D Systems) as an analyte. HBS-EP+ (manufactured by GE Healthcare Bioscience) was used as a running buffer, and a Protein A Sensor Chip (manufactured by GE Healthcare Bioscience) was used as a sensor chip.
# as §1, with “antigen was then added at” for “antigen was added at”
# 1:1 Fitting models were used in data analysis, and the association rate constant ka, the dissociation rate constant kd, and the dissociation constant (KD; KD=kd/ka) were calculated.
# [7] = target: T2, recombinant human GARP (R&D Systems, …); assay: ELISA on plate-coated human GARP (1 ug/mL), 50 nM antibody, HRP anti-human Fc, chemiluminescence
# Description: The plate was washed with the ELISA buffer three times. […] On the other hand, 100 μL of HRP-labeled anti-mouse Fc antibody (R&D Systems), which had been 5000-fold diluted with PBS, was added to the wells treated with mouse anti-GARP antibody and mouse IgG. The plate was incubated at room temperature for 1 hour with mixing.
# [8] = target: T2, recombinant human GARP (R&D Systems, …); assay: ELISA, Fab in E. coli culture supernatant on coated or NeutrAvidin-captured biotinylated GARP
# Description: 50 μL GARP, which had been diluted to 2 μg/mL with PBS (0.01 M phosphate buffered saline (pH 7.4) containing 0.138 M sodium chloride and 0.0027 M potassium chloride; Sigma-Aldrich), was added to each well of a 384-well Maxi-sorp plate (Black, Nunc), and it was then incubated overnight at 4° C. for coating the plate. Alternatively, 50 μL of NeutrAvidin (Life Technologies) which had been diluted to 1 μg/mL with PBS was added to such a 384-well Maxi-sorp plate for coating the plate (by incubating overnight at 4° C.). Thereafter, the plate was washed with an ELISA buffer (PBS (Sigma-Aldrich) supplemented with 0.05% Tween-20 (Bio-RAD)) three times, and biotinylated GARP was then added thereto (1 pmol/50 μL PBS/well), followed by incubation at room temperature for 1 hour with mixing. The plate was washed with ELISA buffer three times, was then blocked with Blocker Casein (Thermo Scientific), and was further washed with the ELISA buffer three times. Thereafter, a culture supernatant containing Fab produced by Escherichia coli was added, and the plate was then incubated at room temperature for 1 hour with mixing. […] Ten minutes later, chemiluminescence was measured using a plate reader (Envision 2104 Multilabel Reader, Perkin Elmer), and GARP-bound Fab was isolated.
molecule,measurement,setting,value
"Alexa Fluor 647-labeled anti-GARP antibody (G14D9, eBioscience)","percent of cells in the upper right quadrant (GARP-positive, Foxp3-positive)",[1],4.19
same,"percent of cells in the lower right quadrant (GARP-positive, Foxp3-negative)",[2],0.81
human IgG (antibody),"percent of CD4-positive cells in Q2 (GARP-positive, Foxp3-positive)",[3],0.039%
same,"percent of CD4-positive cells in Q3 (GARP-positive, Foxp3-negative)",[3],0.242%
B1,"percent of CD4-positive cells in Q2 (GARP-positive, Foxp3-positive)",[4],3.54%
same,"percent of CD4-positive cells in Q3 (GARP-positive, Foxp3-negative)",[4],2.41%
same,Kd,[5],1800 pM
B2,"percent of CD4-positive cells in Q2 (GARP-positive, Foxp3-positive)",[4],3.38%
same,"percent of CD4-positive cells in Q3 (GARP-positive, Foxp3-negative)",[4],2.59%
same,Kd,[5],1200 pM
B3,Kd,[6],470 pM
B4,Kd,[6],170 pM
B5,binding result,[7],binds
B6,binding result,[8],binds
B7,"percent of CD4-positive cells in Q2 (GARP-positive, Foxp3-positive)",[4],3.47%
same,"percent of CD4-positive cells in Q3 (GARP-positive, Foxp3-negative)",[4],3.25%
same,Kd,[5],88 pM
